{"source": "patent US9090994B2", "binders": {"B1": {"name": "parental murine Fab of aM (murine monoclonal antibody raised against c-Myc peptide) (Fab, V domains shown)", "VH": "QIQLVQSGPELKKPGETVRISCKASGYTFTTAGMQWVQKMPGKGLKWIGWINTHSGVPKYAEDFKGRFAFSLETSASTAYLQMTNLNNEDTATYFCARGYGKGGYFAMDYWGQGTSVTVSS", "VL": "DVVMTQIPFSLPVSLGDQASISCRSSQSLVHSNGNTYLHWYVQKPGQSPKLLIYKVSNRFSGVPDRFSGSGSGTYFTLKISRVEAEDLGVYFCSQSTRVPWTFGGGTKLEIK"}}, "key": {"[1]": {"molecular_target": "c-Myc-containing recombinant protein", "test": "SPR (Biacore T200), c-Myc-containing recombinant protein immobilised, soluble Fab injected at 5-80 nM, 1:1 Langmuir fit"}, "[2]": {"molecular_target": "c-Myc-containing recombinant protein", "test": "SPR; fold change of KD, WT is itself the reference"}}}
{"binder": "B1", "values": [{"measurement": "Kd", "setting": "[1]", "result": 110, "unit": "nM"}, {"measurement": "koff", "setting": "[1]", "result": 0.018, "unit": "s⁻¹"}, {"measurement": "kon", "setting": "[1]", "result": 160000, "unit": "M⁻¹ s⁻¹"}, {"measurement": "Fold change", "setting": "[2]", "result": 1, "unit": "fold"}]}
